Test results published in publication PMC4041440, “Structural and biophysical characterization of Staphylococcus aureus SaMazF shows conservation of functional dynamics” (Nucleic Acids Research, 2014).

Target: the molecule itself
Assay: SEC; analytical gel filtration, Superdex HR75 10/30, 20 mM Tris-HCl pH 8.0, 250 mM NaCl, SaMazF at 3.3 mg/ml; apparent molecular weight about 31 500 Da

B1: Staphylococcus aureus MazF toxin (SaMazF), N-terminally His-tagged (enzyme)
chain: IRRGDVYLADLSPVQGSEQGGVRPVVIIQNDTGNKYSPTVIVAAITGRINKAKIPTHVEIEKKKYKLDKDSVILLEQIRTLDKKRLKEKLTYLSDDKMKEVDNALMISLGLNAVAHQKN
notes: SaMazF, the MazF toxin (ribonuclease) of the Staphylococcus aureus mazEF module; wild type; 13C15N-labelled for the NMR experiments; The models number the tag's last residues Gln-1, Asp0, Pro1, so the tag's Pro may stand at position 1 of SaMazF in place of Met1; The measured mass is 14 794 Da, for the chain with the tag and without the N-terminal methionine; also called SaMazF2 (the dimer); …
stoichiometry N: 2
